Measured values: paper PMC6973334
Values joined by “and” are separate entries in the source; they are usually repeats but may differ in a detail not shown here. Equal entries are not always repeated. Where two headings read alike, the source gives them in different places.

Key:
[1] = biological target: LINGO-1 ectodomain (free ectodomain made from LINGO-1-Fc by limited proteolysis with chymotrypsin) (Homo sapiens); experiment: SEC
[2] = biological target: LINGO-1 ectodomain (free ectodomain made from LINGO-1-Fc by limited proteolysis with chymotrypsin) (Homo sapiens); experiment: SEC-MALS
[3] = biological target: LINGO-1 ectodomain (free ectodomain made from LINGO-1-Fc by limited proteolysis with chymotrypsin) (Homo sapiens); experiment: SEC-MALS; remark: listed apart in the source

Chain of LINGO-1 ectodomain (free ectodomain made from LINGO-1-Fc by limited proteolysis with chymotrypsin) (Homo sapiens) (Q96FE5 42-561): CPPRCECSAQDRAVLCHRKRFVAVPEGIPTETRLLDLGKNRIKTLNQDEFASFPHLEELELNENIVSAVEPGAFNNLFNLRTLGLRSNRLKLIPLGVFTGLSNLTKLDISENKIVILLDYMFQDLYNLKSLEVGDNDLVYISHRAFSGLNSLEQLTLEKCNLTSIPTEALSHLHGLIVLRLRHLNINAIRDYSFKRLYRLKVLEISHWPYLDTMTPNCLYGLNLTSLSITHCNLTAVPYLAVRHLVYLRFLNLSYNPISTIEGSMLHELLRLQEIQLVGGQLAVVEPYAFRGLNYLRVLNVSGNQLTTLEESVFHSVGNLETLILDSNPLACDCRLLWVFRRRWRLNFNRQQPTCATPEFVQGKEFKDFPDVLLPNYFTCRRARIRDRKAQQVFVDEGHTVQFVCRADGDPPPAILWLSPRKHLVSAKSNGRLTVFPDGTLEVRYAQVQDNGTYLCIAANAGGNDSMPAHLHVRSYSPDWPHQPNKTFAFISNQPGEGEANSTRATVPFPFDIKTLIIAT

Row | Substance | reduction of the concatemer peaks [1] [%] | stoichiometry N (LINGO-1 per mAb) [2] | stoichiometry N (LINGO-1 per mAb) [3]
1 | Li81 R18S/R54T mAb (antibody) | 50 | – | –
2 | Li81 R18S/S31R mAb (antibody) | 25 | – | –
3 | Li81 R18S/S31R/R54T mAb (antibody) | – | 2 and 1 | 2
